Measured values taken from patent US20240036057A1, “DNA APTAMERS FOR THE DETECTION OF MONOMERIC CRP” (Universiteit Hasselt, published 2024).

T1: monomeric C-reactive protein (mCRP) (Homo sapiens, UniProt P02741 P02741:19-224)
T1 sequence: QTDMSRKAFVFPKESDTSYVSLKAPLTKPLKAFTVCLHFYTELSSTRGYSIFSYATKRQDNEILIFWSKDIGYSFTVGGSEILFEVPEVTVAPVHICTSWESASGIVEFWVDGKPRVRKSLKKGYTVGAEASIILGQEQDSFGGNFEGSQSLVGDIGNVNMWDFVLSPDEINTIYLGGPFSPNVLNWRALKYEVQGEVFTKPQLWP

B1: AmC2 (ssDNA)
DNA: GCACCAGCATATTCGATTGTGGCGGGTTGTGAAGGGTGGAGTATGGTCGTGTTGGTTGGGCTAGTAGGTGCATCAG
B2: AmC3 (ssDNA)
DNA: GCACCAGCATATTCGATTGGGAGCGCGGGGGAGAGTAGTGGGGAACGGTGGAGAGTTGGGCTAGTAGGTGCATCAG
B3: AmC4 (ssDNA)
DNA: GCACCAGCATATTCGATTGGGAGGTGTGAACGTTATGTGGTAGAGAGATGGGTGGTGGGGCTAGTAGGTGCATCAG

Assays:
[1] = biological target: T1, monomeric C-reactive protein (mCRP); experiment: SPR; mCRP immobilized on CM4, pCRP reference cell; 1:1 Langmuir; ka 4.242E+03 1/Ms, kd 6.41E-04 1/s; aptamer binding buffer pH 7.4
Method: On the contrary the aptamer was very stable regeneration steps and therefore a multicycle kinetics analysis was performed for the evaluation of reaction kinetics of the aptamer. Pentameric CRP is immobilized in the reference flow cell and mCRP in the active cell at a low immobilization level (70 RU) to achieve an optimal kinetic analysis on CM4 biosensor chips. The kinetic analysis was performed with increasing concentrations of aptamer AmC2 (0-500 nM) applying for 200 sec of association and 200 sec dissociation at flow rate of 300 μl/min. A regeneration step of 120 sec using 1 M NaOH was applied between the injections of different concentrations. The Biacore evaluation software was used in the analysis for estimation of affinity rate constant by fitting the obtained binding sensogram using standard mathematical 1:1 Langmuir model.
The kinetic parameters of the antibody 3H12 and aptamer AmC2 were evaluated using the inbuilt kinetics modules of the Biacore T200 SPR (FIG. 2). […] The strength of the binding interaction between the ligand and target analyte can be measured based on the affinity constant value KD. […] The binding kinetics of the ligand to the target analyte is a time dependent interaction and in SPR this is measured as the association and dissociation constants (ka and kd). […]

[2] = biological target: T1, monomeric C-reactive protein (mCRP); experiment: SPR; 200 nM aptamer; 75 mM HEPES, 0.15 M NaCl pH 7.4
Method: Regeneration of the CM4 chip flow cells was achieved by applying 10 mM NaOH with 120 sec followed by several washing steps with 1× aptamer binding buffer. SPR binding concentrations were obtained as a resonance unit RU (1 RU=1 pg/mm² of the sensor surface) by calculating the binding units of antibody/aptamer and mCRP and correcting for the background signal observed in the reference channel.

Binder	Kd [1] [nM]	binding result [2]
B1	151	
B2		binds
B3		binds
